# Biological target: T1, active MALT1 (Homo sapiens, UniProt Q9UDY8)
# T1 construct: endogenous in cells; host or cells: Jurkat T cells, primary human PBMCs and T cells, DLBCL cell lines (HBL1, TMD8, OCI-Ly3, OCI-Ly10, U2932, RIVA, BJAB, Su-DHL-4, Su-DHL-6)
# T1 sequence (Q9UDY8 1-824): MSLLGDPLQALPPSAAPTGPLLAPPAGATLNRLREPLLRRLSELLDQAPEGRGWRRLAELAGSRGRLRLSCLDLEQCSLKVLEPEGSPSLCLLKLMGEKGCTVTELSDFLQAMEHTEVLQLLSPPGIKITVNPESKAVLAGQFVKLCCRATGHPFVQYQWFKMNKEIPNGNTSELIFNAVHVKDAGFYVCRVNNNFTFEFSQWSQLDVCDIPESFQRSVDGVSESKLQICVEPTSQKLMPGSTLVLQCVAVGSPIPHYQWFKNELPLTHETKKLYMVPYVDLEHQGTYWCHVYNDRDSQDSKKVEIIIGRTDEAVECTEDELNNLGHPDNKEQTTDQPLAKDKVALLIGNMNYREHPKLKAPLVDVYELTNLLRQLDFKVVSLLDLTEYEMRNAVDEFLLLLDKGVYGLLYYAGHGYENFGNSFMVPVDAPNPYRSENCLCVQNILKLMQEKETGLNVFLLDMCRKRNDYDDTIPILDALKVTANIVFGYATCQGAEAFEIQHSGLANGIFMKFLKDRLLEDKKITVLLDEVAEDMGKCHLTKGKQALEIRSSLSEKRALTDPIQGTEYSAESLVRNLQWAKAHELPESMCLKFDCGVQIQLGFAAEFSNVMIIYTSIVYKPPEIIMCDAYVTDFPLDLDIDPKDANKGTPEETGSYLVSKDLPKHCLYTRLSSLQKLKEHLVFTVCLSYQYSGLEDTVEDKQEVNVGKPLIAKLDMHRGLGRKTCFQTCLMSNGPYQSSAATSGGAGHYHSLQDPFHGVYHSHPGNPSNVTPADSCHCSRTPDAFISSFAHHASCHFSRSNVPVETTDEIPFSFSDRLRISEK
# Assay: MALT1 ELASA in cryo-preserved patient DLBCL tumor samples
# Details: 0.25 μM on lysed tumor tissue
# Method: FIG. 10: A) Active MALT1 detection in cryo-preserved patient tumor samples. Frozen tumor tissue was lysed with a douncer and syringe, incubated with z-VRPR-FMK (0.25 μM) (SEQ ID No. 6) or left untreated before MALT1 activity read-out as above. Relative MALT1 activity from each untreated and z-VRPR-FMK (SEQ ID No. 6) treated samples was measured and directly compared (ABC DLBCL n=8; GCB DLBCL n=7). Significance for MALT1 activity in untreated to z-VRPR-FMK (SEQ ID No. 6) treated samples was calculated by a two-tailed t-test (**<0.005). B) Oncogenic CARMA1 is sufficient to trigger MALT1 activation. BJAB transduced with CARMA1 WT or L244P (ABC derived) or L225PI (GCB derived) were lysed and treated with z-VRPR-FMK (SEQ ID No. 6) and analyzed as above. Results and SD from three independent experiments are shown. MALT1 activity is depicted as arbitrary units [AU].
# Untreated DLBCL (1×10^7), primary T cells (0.25×10^7) or Jurkat T cells (0.2-1×10^7) (stimulated or not) were lysed in 300 μl co-IP buffer without protease inhibitors, centrifuged, incubated with probe 7 (concentration as depicted) for 1 h at RT, then transferred to streptavidin-coated plates (96 well, clear) and incubated o/n at 4° C. […] was determined after TMB substrate incubation in a photometer (Bio-Tek). […]
substance,measurement,setting,value
"z-VRPR-FMK (Z N-terminal cap, FMK warhead)","samples with reduction in MALT1 activity, GCB DLBCL",7 GCB DLBCL biopsies,one out of seven
same,"samples with reduction in MALT1 activity, ABC DLBCL",8 ABC DLBCL biopsies,five out of eight
